According to paper PMC3213119:

Target: TssM-ekto (periplasmic domain of TssM, 386-1129), after TEV cleavage (enteroaggregative Escherichia coli strain 17-2)
Assay: SEC-MALS; MALS/QELS/UV/RI of the TssM-ekto/TssJ complex; 10 mM HEPES pH 7.5, 150 mM NaCl

“TssJ (enteroaggregative E. coli Sci1 T6SS), residues 2-155 of the processed lipoprotein, fusion and tag cleaved (domain or fragment)” was tested, and the stoichiometry N was 1.
